The text below walks through data of US20120009180A1 (Kyowa Kirin, published 2012).

One may read the kon as a measure of how fast the partners come together. Lower therefore signals slower complex formation. Broadly, the koff is a measure of how fast the partners let go of each other. Read a high koff as fast dissociation.

Experiment [1] addresses T1, Aβ monomers prepared from Biotin-beta-Amyloid, Human 1-40 (human, UniProt P05067 672-711, biotin (Biotin-beta-Amyloid; position of the biotin not stated)).
T1 construct: domain: beta-Amyloid 1-40; captured through biotin on an SA sensor chip; also called amyloid β protein monomer
The experiment in a line: SPR (Biacore T100), biotin-Aβ1-40 monomers captured on SA chip, antibody injected. As to the method: In order to analyze the binding activity of the respective anti-Aβ oligomer humanized antibodies (HV0LV0, HV5aLV0, HV5aLV1b, HV5aLV3, HV6LV0, HV6LV1b, and HV6LV3) against Aβ monomers, the binding activity was measured in the same manner as in (1) of this Example. In addition, the binding activity of anti-Aβ antibody 6E10 (manufactured by CONVANCE) was measured as a control antibody.
The Aβ monomers obtained in (2) of Example (2) were immobilized to the SA sensor chip (manufactured by GE Healthcare Bio-sciences) by the biotin capturing method. Onto the chip to which the Aβ monomers were immobilized, samples for measurement, which were prepared to have 5 levels of density by diluting from 30 μg/mL by doubling dilution in a stepwise manner (HV0LV0, HV5aLV0, HV5aLV1b, HV5aLV3, HV6LV0, HV6LV1b, and HV6LV3) were sequentially injected and measured in the order from the lower density based on the automatic program of the multi-kinetics mode.

For experiment [2], the target named is T2, Aβ oligomers prepared from Amyloid β-protein, Human 1-42 peptide (human, UniProt P05067 672-713).
T2 construct: domain: Amyloid β-protein 1-42; Oligomeric preparation (HFIP, DMSO, acetic acid solution pH 4.5, overnight at 4 °C); Amine-coupled to a CM5 chip; also called amyloid β oligomer
T2 sequence (P05067 672-713 limits assumed): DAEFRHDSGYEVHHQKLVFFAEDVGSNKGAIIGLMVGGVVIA
The experiment in a line: SPR (Biacore T100), Aβ oligomers amine-coupled to CM5 chip, antibody injected, Bivalent Analyte model (ka1). The procedure:
(§1) All the following operations were performed using Biocore T100 (manufactured by GE Healthcare Bio-sciences). The Aβ oligomers obtained in (1) of Example 2 were immobilized to the CM5 sensor chip (GE Healthcare Bio-sciences) using the amine coupling method.
(§2) Onto the chip to which the Aβ oligomers were immobilized for measurement samples prepared to have 8 levels of density by diluting from 30 μg/mL by doubling dilution in a stepwise manner (HV0LV0, HV5aLV0, HV5aLV1b, HV5aLV3, HV6LV0, HV6LV1b, and HV6LV3) was sequentially injected and measured in the order from the lower density based on the automatic program of the multi-kinetics.
(§3) Using the analysis software attached to the device, Biacore T100 Evaluation software (manufactured by Biacore Life Science), analysis was carried out with the Bivalent Analyte model to calculate the binding rate constant ka and the dissociation rate constant kd of each of the antibody against Aβ oligomers.
In general terms: Surface plasmon resonance follows binding to a sensor surface in real time, without labels.

The target in experiment [3] is T2, Aβ oligomers prepared from Amyloid …. The experiment in a line: SPR (Biacore T100), Aβ oligomers amine-coupled to CM5 chip, antibody injected, Bivalent Analyte model (kd1). The procedure:
as §1, §2, §3

Experiment [4] has the same target. Description: SPR (Biacore T100), Aβ oligomers amine-coupled to CM5 chip, antibody injected, Bivalent Analyte model (kd1/ka1). The procedure:
as §1, §2, §3

T1 sequence (P05067 672-711 limits assumed): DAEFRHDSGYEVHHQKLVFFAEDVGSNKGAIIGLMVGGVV

B1: anti-Aβ oligomer humanized antibody HV0LV0 (antibody, V domains shown)
VH: DVQLVESGGGVVQPGRSLRLSCAASGFTFSSFGMHWVRQAPGKGLQWMVYISSGSSTIYYADTVKGRFTISRDNSRSTLFLQMNSLRGEDTAVYYCARTGTRAYWGQGTLVTVSS
VL: DIVMTQSPLSLPVTPGEPASISCRSSQSIVHSNGNTYLEWYLQKPGQSPQLLIYKVSNRFSGVPDRFSGSGSGTDFTLKISRVEAEDVGVYYCFQGSHVPPTFGQGTKLEIK
notes: purified on Prosep vA; also called HV0LVV0; 4H5HV0 + 4H5LV0
Turning to B1, the binding result in experiment [1] is reported as “no binding”. The molecule also yielded an association rate constant (kon) in experiment [2] of 14000 M⁻¹ s⁻¹. In experiment [3], this molecule gave an off-rate constant (koff) of 0.0014 s⁻¹. The Kd in experiment [4] is 100 nM.

B2: anti-Aβ oligomer humanized antibody HV5aLV1b (antibody, V domains shown)
VH: DVQLVESGGGVVQPGRSLRLSCAASGFTFSSFGMHWVRQAPGKGLEWVAYISSGSSTIYYADTVKGRFTISRDNSRSTLFLQMNSLRGEDTAMYYCAGTGTRAYWGQGTLVTVSS
VL: DIVMTQSPLSLPVTLGEPASISCRSSQSIVHSNGNTYLEWYLQKPGQSPQLLIYKVSNRFSGVPDRFSGSGSGTDFTLKISRVEAEDVGVYYCFQGSHVPPTFGQGTKLEIK
Turning to B2, the binding result in experiment [1] is “no binding”. This molecule had a kon in experiment [2] of 9800 M⁻¹ s⁻¹. In experiment [3], this molecule showed an off-rate (koff) of 0.00088 s⁻¹. The same molecule gave a Kd in experiment [4] of 90 nM.

B3: anti-Aβ oligomer humanized antibody HV6LV3 (antibody, V domains shown)
VH: DVQLVESGGGVVQPGRSLRLSCAASGFTFSSFGMHWVRQAPGKGLEWVAYISSGSSTIYYADTVKGRFTISRDNSRNTLFLQMNSLRGEDTAMYYCAGTGTRAYWGQGTLVTVSS
VL: DVVMTQSPLSLPVTLGEPASISCRSSQSIVHSNGNTYLEWYLQKPGQSPKLLIYKVSNRFSGVPDRFSGSGSGTDFTLKISRVEAEDVGVYYCFQGSHVPPTFGQGTKLEIK
Regarding B3, the binding result in experiment [1] was “no binding”. Further, the kon in experiment [2] was 8200 M⁻¹ s⁻¹. In experiment [3], the koff worked out at 0.00092 s⁻¹. In addition, the Kd in experiment [4] was found to be 110 nM.

B4: anti-Aβ oligomer humanized antibody HV5aLV0 (antibody, V domains shown)
VH: DVQLVESGGGVVQPGRSLRLSCAASGFTFSSFGMHWVRQAPGKGLEWVAYISSGSSTIYYADTVKGRFTISRDNSRSTLFLQMNSLRGEDTAMYYCAGTGTRAYWGQGTLVTVSS
VL: DIVMTQSPLSLPVTPGEPASISCRSSQSIVHSNGNTYLEWYLQKPGQSPQLLIYKVSNRFSGVPDRFSGSGSGTDFTLKISRVEAEDVGVYYCFQGSHVPPTFGQGTKLEIK
notes: also called HV5aVL0
For the molecule B4, the binding result in experiment [1] is reported as “no binding”. This molecule gave an on-rate constant (kon) in experiment [2] of 11000 M⁻¹ s⁻¹. Also, the koff in experiment [3] turned out to be 0.00063 s⁻¹. In experiment [4], the Kd was 55 nM.
